Experimental data: patent publication US20150274828A1 (SHANGHAI SERUM BIOTECHNOLOGY, published 2015)

Target: T1, EGFR-Fc fusion protein (recombinant EGFR extracellular region-Fc) (human, UniProt P00533 25-645)
T1 construct: extracellular domain; not shown: Fc part supplied by vector pABG1
Assay: BLI ForteBio QKe, biotinylated EGFR-Fc on streptavidin sensor, antibody 20 nM; fold reduction of affinity, parent Ame55 = 1;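 note: parent antibody affinity set as 1, with values giving the fold drop in affinity of each mutant antibody relative to that parent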

Row | Binder | Affinity change [fold]
1 | Ame55 mutant, heavy chain 51A (antibody, V domains shown, Mutant of Ame55) VH: EVQLVQSGAEVKKPGESLKISCKGSGYSFTSYWIGWVRQMPGKGLEWMGIAYPGDSDTRYSPSFQGQVTISADKSISTAYLQWSSLKASDTAMYYCARGIIYPSNVAVWGQGTLVTVSS VL: SYELTQPPSVSVAPGQTARITCSGDALGDKYASWYQQKPGQAPVLVIYEDSKRPSGIPERFSGSNSGNTATLTISGTQAEDEADYYCSVWDGDWGMPVFGGGTKLTVLG | > 10
2 | Ame55 mutant, heavy chain 52D (antibody, V domains shown, Mutant of Ame55) VH: EVQLVQSGAEVKKPGESLKISCKGSGYSFTSYWIGWVRQMPGKGLEWMGIIDPGDSDTRYSPSFQGQVTISADKSISTAYLQWSSLKASDTAMYYCARGIIYPSNVAVWGQGTLVTVSS VL: SYELTQPPSVSVAPGQTARITCSGDALGDKYASWYQQKPGQAPVLVIYEDSKRPSGIPERFSGSNSGNTATLTISGTQAEDEADYYCSVWDGDWGMPVFGGGTKLTVLG | > 10
3 | Ame55 mutant, heavy chain 53A (antibody, V domains shown, Mutant of Ame55) VH: EVQLVQSGAEVKKPGESLKISCKGSGYSFTSYWIGWVRQMPGKGLEWMGIIYAGDSDTRYSPSFQGQVTISADKSISTAYLQWSSLKASDTAMYYCARGIIYPSNVAVWGQGTLVTVSS VL: SYELTQPPSVSVAPGQTARITCSGDALGDKYASWYQQKPGQAPVLVIYEDSKRPSGIPERFSGSNSGNTATLTISGTQAEDEADYYCSVWDGDWGMPVFGGGTKLTVLG | 5
4 | Ame55 mutant, heavy chain 54A (antibody, V domains shown, Mutant of Ame55) VH: EVQLVQSGAEVKKPGESLKISCKGSGYSFTSYWIGWVRQMPGKGLEWMGIIYPADSDTRYSPSFQGQVTISADKSISTAYLQWSSLKASDTAMYYCARGIIYPSNVAVWGQGTLVTVSS VL: SYELTQPPSVSVAPGQTARITCSGDALGDKYASWYQQKPGQAPVLVIYEDSKRPSGIPERFSGSNSGNTATLTISGTQAEDEADYYCSVWDGDWGMPVFGGGTKLTVLG | > 10
5 | Ame55 mutant, heavy chain 54S (antibody, V domains shown, Mutant of Ame55) VH: EVQLVQSGAEVKKPGESLKISCKGSGYSFTSYWIGWVRQMPGKGLEWMGIIYPSDSDTRYSPSFQGQVTISADKSISTAYLQWSSLKASDTAMYYCARGIIYPSNVAVWGQGTLVTVSS VL: SYELTQPPSVSVAPGQTARITCSGDALGDKYASWYQQKPGQAPVLVIYEDSKRPSGIPERFSGSNSGNTATLTISGTQAEDEADYYCSVWDGDWGMPVFGGGTKLTVLG | 0.5
6 | Ame55 mutant, heavy chain 55A (antibody, V domains shown, Mutant of Ame55) VH: EVQLVQSGAEVKKPGESLKISCKGSGYSFTSYWIGWVRQMPGKGLEWMGIIYPGASDTRYSPSFQGQVTISADKSISTAYLQWSSLKASDTAMYYCARGIIYPSNVAVWGQGTLVTVSS VL: SYELTQPPSVSVAPGQTARITCSGDALGDKYASWYQQKPGQAPVLVIYEDSKRPSGIPERFSGSNSGNTATLTISGTQAEDEADYYCSVWDGDWGMPVFGGGTKLTVLG | > 100
7 | Ame55 mutant, heavy chain 56A (antibody, V domains shown, Mutant of Ame55) VH: EVQLVQSGAEVKKPGESLKISCKGSGYSFTSYWIGWVRQMPGKGLEWMGIIYPGDADTRYSPSFQGQVTISADKSISTAYLQWSSLKASDTAMYYCARGIIYPSNVAVWGQGTLVTVSS VL: SYELTQPPSVSVAPGQTARITCSGDALGDKYASWYQQKPGQAPVLVIYEDSKRPSGIPERFSGSNSGNTATLTISGTQAEDEADYYCSVWDGDWGMPVFGGGTKLTVLG | 1
8 | Ame55 mutant, heavy chain 58A (antibody, V domains shown, Mutant of Ame55) VH: EVQLVQSGAEVKKPGESLKISCKGSGYSFTSYWIGWVRQMPGKGLEWMGIIYPGDSDARYSPSFQGQVTISADKSISTAYLQWSSLKASDTAMYYCARGIIYPSNVAVWGQGTLVTVSS VL: SYELTQPPSVSVAPGQTARITCSGDALGDKYASWYQQKPGQAPVLVIYEDSKRPSGIPERFSGSNSGNTATLTISGTQAEDEADYYCSVWDGDWGMPVFGGGTKLTVLG | > 10
9 | Ame55 mutant, heavy chain 59A (antibody, V domains shown, Mutant of Ame55) VH: EVQLVQSGAEVKKPGESLKISCKGSGYSFTSYWIGWVRQMPGKGLEWMGIIYPGDSDTAYSPSFQGQVTISADKSISTAYLQWSSLKASDTAMYYCARGIIYPSNVAVWGQGTLVTVSS VL: SYELTQPPSVSVAPGQTARITCSGDALGDKYASWYQQKPGQAPVLVIYEDSKRPSGIPERFSGSNSGNTATLTISGTQAEDEADYYCSVWDGDWGMPVFGGGTKLTVLG | > 10
10 | Ame55 mutant, heavy chain 59N (antibody, V domains shown, Mutant of Ame55) VH: EVQLVQSGAEVKKPGESLKISCKGSGYSFTSYWIGWVRQMPGKGLEWMGIIYPGDSDTNYSPSFQGQVTISADKSISTAYLQWSSLKASDTAMYYCARGIIYPSNVAVWGQGTLVTVSS VL: SYELTQPPSVSVAPGQTARITCSGDALGDKYASWYQQKPGQAPVLVIYEDSKRPSGIPERFSGSNSGNTATLTISGTQAEDEADYYCSVWDGDWGMPVFGGGTKLTVLG | > 10
11 | Ame55 mutant, heavy chain 60A (antibody, V domains shown, Mutant of Ame55) VH: EVQLVQSGAEVKKPGESLKISCKGSGYSFTSYWIGWVRQMPGKGLEWMGIIYPGDSDTRASPSFQGQVTISADKSISTAYLQWSSLKASDTAMYYCARGIIYPSNVAVWGQGTLVTVSS VL: SYELTQPPSVSVAPGQTARITCSGDALGDKYASWYQQKPGQAPVLVIYEDSKRPSGIPERFSGSNSGNTATLTISGTQAEDEADYYCSVWDGDWGMPVFGGGTKLTVLG | 5
12 | Ame55 mutant, heavy chain 99A (antibody, V domains shown, Mutant of Ame55) VH: EVQLVQSGAEVKKPGESLKISCKGSGYSFTSYWIGWVRQMPGKGLEWMGIIYPGDSDTRYSPSFQGQVTISADKSISTAYLQWSSLKASDTAMYYCARAIIYPSNVAVWGQGTLVTVSS VL: SYELTQPPSVSVAPGQTARITCSGDALGDKYASWYQQKPGQAPVLVIYEDSKRPSGIPERFSGSNSGNTATLTISGTQAEDEADYYCSVWDGDWGMPVFGGGTKLTVLG | > 10
13 | Ame55 mutant, heavy chain 99S (antibody, V domains shown, Mutant of Ame55) VH: EVQLVQSGAEVKKPGESLKISCKGSGYSFTSYWIGWVRQMPGKGLEWMGIIYPGDSDTRYSPSFQGQVTISADKSISTAYLQWSSLKASDTAMYYCARSIIYPSNVAVWGQGTLVTVSS VL: SYELTQPPSVSVAPGQTARITCSGDALGDKYASWYQQKPGQAPVLVIYEDSKRPSGIPERFSGSNSGNTATLTISGTQAEDEADYYCSVWDGDWGMPVFGGGTKLTVLG | > 10
14 | Ame55 mutant, heavy chain 100A (antibody, V domains shown, Mutant of Ame55) VH: EVQLVQSGAEVKKPGESLKISCKGSGYSFTSYWIGWVRQMPGKGLEWMGIIYPGDSDTRYSPSFQGQVTISADKSISTAYLQWSSLKASDTAMYYCARGAIYPSNVAVWGQGTLVTVSS VL: SYELTQPPSVSVAPGQTARITCSGDALGDKYASWYQQKPGQAPVLVIYEDSKRPSGIPERFSGSNSGNTATLTISGTQAEDEADYYCSVWDGDWGMPVFGGGTKLTVLG | 5
15 | Ame55 mutant, heavy chain 101A (antibody, V domains shown, Mutant of Ame55) VH: EVQLVQSGAEVKKPGESLKISCKGSGYSFTSYWIGWVRQMPGKGLEWMGIIYPGDSDTRYSPSFQGQVTISADKSISTAYLQWSSLKASDTAMYYCARGIAYPSNVAVWGQGTLVTVSS VL: SYELTQPPSVSVAPGQTARITCSGDALGDKYASWYQQKPGQAPVLVIYEDSKRPSGIPERFSGSNSGNTATLTISGTQAEDEADYYCSVWDGDWGMPVFGGGTKLTVLG | 4
16 | Ame55 mutant, heavy chain 104A (antibody, V domains shown, Mutant of Ame55) VH: EVQLVQSGAEVKKPGESLKISCKGSGYSFTSYWIGWVRQMPGKGLEWMGIIYPGDSDTRYSPSFQGQVTISADKSISTAYLQWSSLKASDTAMYYCARGIIYPANVAVWGQGTLVTVSS VL: SYELTQPPSVSVAPGQTARITCSGDALGDKYASWYQQKPGQAPVLVIYEDSKRPSGIPERFSGSNSGNTATLTISGTQAEDEADYYCSVWDGDWGMPVFGGGTKLTVLG | 3
17 | Ame55 mutant, heavy chain 105A (antibody, V domains shown, Mutant of Ame55) VH: EVQLVQSGAEVKKPGESLKISCKGSGYSFTSYWIGWVRQMPGKGLEWMGIIYPGDSDTRYSPSFQGQVTISADKSISTAYLQWSSLKASDTAMYYCARGIIYPSAVAVWGQGTLVTVSS VL: SYELTQPPSVSVAPGQTARITCSGDALGDKYASWYQQKPGQAPVLVIYEDSKRPSGIPERFSGSNSGNTATLTISGTQAEDEADYYCSVWDGDWGMPVFGGGTKLTVLG | > 10
18 | Ame55 mutant, heavy chain 106A (antibody, V domains shown, Mutant of Ame55) VH: EVQLVQSGAEVKKPGESLKISCKGSGYSFTSYWIGWVRQMPGKGLEWMGIIYPGDSDTRYSPSFQGQVTISADKSISTAYLQWSSLKASDTAMYYCARGIIYPSNAAVWGQGTLVTVSS VL: SYELTQPPSVSVAPGQTARITCSGDALGDKYASWYQQKPGQAPVLVIYEDSKRPSGIPERFSGSNSGNTATLTISGTQAEDEADYYCSVWDGDWGMPVFGGGTKLTVLG | > 10
19 | Ame55 mutant, heavy chain 107G (antibody, V domains shown, Mutant of Ame55) VH: EVQLVQSGAEVKKPGESLKISCKGSGYSFTSYWIGWVRQMPGKGLEWMGIIYPGDSDTRYSPSFQGQVTISADKSISTAYLQWSSLKASDTAMYYCARGIIYPSNVGVWGQGTLVTVSS VL: SYELTQPPSVSVAPGQTARITCSGDALGDKYASWYQQKPGQAPVLVIYEDSKRPSGIPERFSGSNSGNTATLTISGTQAEDEADYYCSVWDGDWGMPVFGGGTKLTVLG | 1.5
20 | Ame55 mutant, heavy chain 107S (antibody, V domains shown, Mutant of Ame55) VH: EVQLVQSGAEVKKPGESLKISCKGSGYSFTSYWIGWVRQMPGKGLEWMGIIYPGDSDTRYSPSFQGQVTISADKSISTAYLQWSSLKASDTAMYYCARGIIYPSNVSVWGQGTLVTVSS VL: SYELTQPPSVSVAPGQTARITCSGDALGDKYASWYQQKPGQAPVLVIYEDSKRPSGIPERFSGSNSGNTATLTISGTQAEDEADYYCSVWDGDWGMPVFGGGTKLTVLG | 0.2
21 | Ame55 mutant, heavy chain 108A (antibody, V domains shown, Mutant of Ame55) VH: EVQLVQSGAEVKKPGESLKISCKGSGYSFTSYWIGWVRQMPGKGLEWMGIIYPGDSDTRYSPSFQGQVTISADKSISTAYLQWSSLKASDTAMYYCARGIIYPSNVAAWGQGTLVTVSS VL: SYELTQPPSVSVAPGQTARITCSGDALGDKYASWYQQKPGQAPVLVIYEDSKRPSGIPERFSGSNSGNTATLTISGTQAEDEADYYCSVWDGDWGMPVFGGGTKLTVLG | 5
